Laboratory results published in patent US20170101474A1 (FORMUREX, published 2017).
Where no end group is shown, it is not given here.

Assays:
Recombinant human EGFR [1] = biological target: T1, Recombinant human EGFR (human, UniProt P00533 25-645, limits assumed); assay: SPR, EGFR immobilized, peptide as analyte, 1:1 model
T1 construct: Immobilized by amine coupling on a carboxymethyl dextran SPR chip; also called epidermal growth factor receptor; surface-immobilized EGFR
Protocol: (§1) A carboxymethyl dextran gold sensor chip was activated by N-hydroxysuccinimide (NHS) and N-ethyl-N″-[3-(diethylamino)propyl] carbodiimide (EDC) at 25° C. using phosphate buffered saline pH 7.4 with 0.05% tween 20 as running buffer. […] Unreactive sites were blocked by flowing over the chip 1 M ethanolamine pH 8.5 at 10 μL/min for 8 minutes. […] The resulting sensograms were globally fitted using Scrubber2 software (BioLogic Software, Campbell, Australia) in a 1:1 binding model to determine the association rate (kₒₙ), dissociation rate (kd or koff), and dissociation constant KD.

Bovine serum albumin = biological target: T2, Bovine serum albumin (bovine, UniProt P02769 25-607); assay: SPR, BSA immobilized, peptide as analyte
T2 construct: Immobilized control protein in SPR; also called BSA
T2 sequence (P02769 25-607 limits assumed): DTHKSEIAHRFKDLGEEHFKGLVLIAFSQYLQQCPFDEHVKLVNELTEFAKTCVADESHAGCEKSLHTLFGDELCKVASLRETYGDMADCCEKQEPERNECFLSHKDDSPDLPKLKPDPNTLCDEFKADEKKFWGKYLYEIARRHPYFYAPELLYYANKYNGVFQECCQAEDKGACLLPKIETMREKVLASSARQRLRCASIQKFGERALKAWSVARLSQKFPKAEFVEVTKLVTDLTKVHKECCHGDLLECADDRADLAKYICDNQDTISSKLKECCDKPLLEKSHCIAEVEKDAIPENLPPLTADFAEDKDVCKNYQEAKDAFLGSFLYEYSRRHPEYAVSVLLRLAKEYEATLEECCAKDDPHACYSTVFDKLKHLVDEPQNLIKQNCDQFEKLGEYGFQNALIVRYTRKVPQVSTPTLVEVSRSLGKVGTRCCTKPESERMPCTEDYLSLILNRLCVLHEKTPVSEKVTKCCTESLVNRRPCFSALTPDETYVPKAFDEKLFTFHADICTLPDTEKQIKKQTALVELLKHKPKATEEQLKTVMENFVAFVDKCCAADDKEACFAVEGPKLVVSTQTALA

[2] = biological target: T3, HER2 recombinant human protein (human, UniProt P04626 23-652, limits assumed); assay: SPR, HER2 immobilized, peptide as analyte, 1:1 model
T3 construct: Covalently attached to a carboxymethylated dextran SPR chip by EDC/NHS; also called HER2 protein; human epidermal growth factor receptor 2
Protocol: Then, the chip was blocked by passing EA for 8 minutes at a rate of 10 μL/min. […] Triplicate determinations were done at each concentration. The bound surface was regenerated by sequential injections of 10 mM glycine in PBST (pH 2.5).
The sensorgrams from SPR were globally treated using Scrubber 2® software where all traces were zeroed, cropped, aligned, and referenced. Kinetic constants ka and kd were determined by global fitting analyses of the titration curves using the 1:1 Lagmurian interaction model taking into account the mass transport. The equilibrium dissociation constant (KD) was calculated from the kd/ka ratio.
Both kinetic constants ka and kd were determined by global fitting analyses of the titration curves using the 1:1 Lagmurian interaction model in software Scrubber.

[3] = biological target: HER2 on MDA-MB-361 and ZR-75-1 cells (human) (UniProt P04626); assay: flow cytometry, FITC-labelled peptide 10 µM, MDA-MB-361 cells (blank cells 4.5±0.2)
[4] = biological target: HER2 on MDA-MB-361 and ZR-75-1 cells (human) (UniProt P04626); assay: flow cytometry, FITC-labelled peptide 10 µM, ZR-75-1 cells (blank cells 3.2±0.4)
Recombinant human EGFR [5] = biological target: T1, Recombinant human EGFR; assay: SPR, EGFR immobilized
Protocol: as §1

[6] = biological target: T4, EGFR on A431 and MDA-MB-468 cells (UniProt P00533 25-1210, limits assumed); assay: cell-based or functional assay
[7] = biological target: T4, EGFR on A431 and MDA-MB-468 cells; assay: confocal microscopy of cells incubated with FITC-labelled scrambled peptide for 30 min at 37 C
Protocol: For binding/internalization studies, 5×10⁵ cells were seeded in cover slips in 6 well culture plates overnight. […] Cells were fixed with 4% paraformaldehyde and cover slips were mounted on slides which contain a drop of SlowFade®. Cells were then imaged with an inverted Leica. DMIRE2 fluorescence microscope (Leica Biosystems Richmond Inc., Richmond, USA) using a Yokogawa CSUX1 confocal scanner unit. […] Cells were then centrifuged at 500 g for 5 min. Supernatant was removed and cell pellets were re-suspended in FACS solution. The cell suspension was then analyzed on a Beckman Coulter flow cytometer and data were analyzed using the Cell Questpro. A total of 10000 events were collected monitoring FITC.

Recombinant human EGFR [8] = biological target: T1, Recombinant human EGFR; assay: SPR, EGFR immobilized on the chip, scrambled peptide Pep25 injected; concentrations not given

Binder | Kd (Recombinant human EGFR [1]) | koff (Recombinant human EGFR [1]) | kon (Recombinant human EGFR [1]) | binding result (Bovine serum albumin) | Kd [2] | further results
WSGENGPGYFDYEA (Designed cetuximab mimic peptide for EGFR, made by synthesis; also called No. 6) [Pep6] | 4800 nM | 0.00581 s⁻¹ | 1210 M⁻¹ s⁻¹ | no binding |  | 
WSGENGPGFYDYEA (not fully specified, Designed cetuximab mimic peptide for EGFR; Unlabelled in SPR; also called EGFR-PEP11; FITC-Pep11) [Pep11] | 252 nM | 0.0252 s⁻¹ | 100000 M⁻¹ s⁻¹ | no binding |  | fold KD relative to cetuximab (Recombinant human EGFR [5]): ~50 fold; IC50 of cytotoxicity (sulforhodamine B assay, 72 h), A431 cells [6]: 388 nM; IC50 of cytotoxicity (sulforhodamine B assay, 72 h), MDA-MB-468 cells [6]: 420 nM
SGEWAYDGYEPNFG (also: FITC label in cell assays, position not given here, Scrambled negative control; Unlabelled in SPR; FITC-conjugated in the cell assays; also called scrambled peptide; scrambled antibody mimic) [Pep25] |  |  |  |  |  | binding result [7]: no binding; binding result (Recombinant human EGFR [8]): no binding
WSGENGPGTFYDYEA (also called EGFR-PEP22; No. 22) [Pep22] | 595 nM | 0.0259 s⁻¹ | 43500 M⁻¹ s⁻¹ | no binding |  | 
WSGENGPGFYDYEA (also: auristatin E (as 5-benzoylpentanoic ester) joined through a maleimidocaproyl hydrazone linker to a free thiol of the peptide, thiol position not given here) [Pep11-auristatin E PDC] |  |  |  |  |  | IC50 of cytotoxicity (sulforhodamine B assay, 72 h), A431 cells [6]: 0.0026 nM; IC50 of cytotoxicity (sulforhodamine B assay, 72 h), MDA-MB-468 cells [6]: 0.0013 nM

Further lines, with some results ahead:

Kd (Recombinant human EGFR [1]) | koff (Recombinant human EGFR [1]) | kon (Recombinant human EGFR [1]) | binding result (Bovine serum albumin) | Kd [2] | Binder | further results
7200 nM | 0.103 s⁻¹ | 14300 M⁻¹ s⁻¹ | no binding |  | AEYDFYGPGNEGSW (also called No. 24) [Pep24] | 
 |  |  |  | 93 nM | VGYDTGLRAPNSVGSTKQ (not fully specified, Designed pertuzumab mimic peptide; Unlabelled in SPR; FITC-labelled in cell assays) [HER2-PEP7] | 
 |  |  |  | 56 nM | PGNDTGLSRAPENSGFTYQ (not fully specified, Designed pertuzumab mimic peptide; Unlabelled in SPR; FITC-labelled in cell assays) [HER2-PEP21] | 
 |  |  |  | 138000 nM | TSPQGYPNDAGFLGRESTN (not fully specified, Unlabelled in SPR; FITC-labelled in cell assays; also called control peptide; FITC-HER2-PEP22) [HER2-PEP22] | MFI [3]: 22.1 MFI; MFI [4]: 19.6 MFI; koff [2]: 0.0181 s⁻¹; kon [2]: 131 M⁻¹ s⁻¹
